From patent publication US5972902, “DNA encoding human IL-6 receptor antagonist and protein encoded thereby” (dated 1999)
Positions count from the first letter of the chain named. Names may count otherwise. Values belong to the molecule of their own block, whether it stands above or below them.

Tests used:
hIL-6 receptor [1] = biological target: T1, hIL-6 receptor (human, UniProt P08887)
hIL-6 receptor [2] = biological target: T1, hIL-6 receptor; test: receptor binding assay by the method of Savino et al. 1994
Method: The proteins IL-6 DFRD/D160R (coded by the cDNA described in SEQ ID NO:4), IL-6 DFRD/W157R/D160R (coded by the cDNA described in SEQ ID NO:5) and IL-6 DFRD/T162D (coded by the cDNA described in SEQ ID NO:6) were produced according to the state of the art, as described (Arcone, R., Pucci, P., Zappacosta, F., Fontaine, V., Malorni, A., Marino, G., and Ciliberto, G., Eur. J. Biochem. 198, 541–547, 1991). The ability of the mutants to bind to the hIL-6 receptor was measured using state of the art methods, as described (Savino, R., Lahm, A., Salvati, A. L., Ciapponi, L., Sporeno, E., Altamura, S., Paonessa, G., Toniatti, C., Ciliberto, G., EMBO J. 13, 1357–1367, 1994). Table 1 below gives the receptor binding levels for wild type IL-6 and for the mutant forms obtained as described in example 1.

gp130 = gp130 (Homo sapiens (Human), UniProt P40189); test: cell-based or functional assay

90% inhibition of interleukin-6 activity on hepatoma cells Hep3B (4 ng/ml wild type IL-6) (hIL-6 receptor [1]): 30 ng/mL | 90% inhibition of interleukin-6 activity on myeloma cells XG-1 (IL-6-dependent growth, 0.1 ng/ml wild type IL-6) (hIL-6 receptor [1]): 35 ng/mL | 90% inhibition of interleukin-6 activity on myeloma cells XG-2 (IL-6-dependent growth, 0.5 ng/ml wild type IL-6) (hIL-6 receptor [1]): 950 ng/mL
Molecule: Sant7 (ligand)

Biological activity on human hepatoma cells (gp130): 0% | ability to bind to the IL-6 receptor (% of wild type) (hIL-6 receptor [2]): 130%
B3: IL-6 DFRD/W157R/D160R (ligand)
chain: PVPPGEDSKDVAAPHRQPLTSSERIDKQIRDILDFISALRKETCNKSNMCESSKEALAENNLNLPKMAEKDGCFQSGFNEETCLVKIITGLLEFEVYLEYLQNRFESSEEQARAVQMRTKDLIQFLQKKAKNLDAITTPDPTTNASLLTKLQAQNQRLQRMTTHLILRSFKEFLQSSLRALRQM

The next lines start with the molecule.

B1: IL-6 DFRD/D160R (ligand)
chain: B3 chain with R157W
ability to bind to the IL-6 receptor (% of wild type) (hIL-6 receptor [2]): 137%

B2: IL-6 DFRD/T162D (ligand)
chain: B3 chain with R157W, R160D, T162D
Biological activity on human hepatoma cells (gp130): 0% | ability to bind to the IL-6 receptor (% of wild type) (hIL-6 receptor [2]): 39%
